Source: US20120058906A1 (published 2012)
Numbering of substitutions follows the chain as printed. Blank lines part the entries; values can stand above or below the binder they belong to.

What was measured:
[1] = molecular target: T1, rHuman CD44/Fc Chimera, CF (R&D Systems Cat#3660-CD) (human, UniProt P16070 21-220); test: ECL (MSD Multi-Spot) binding assay, antigen spotted on plate; Fab 154 nM; blank spot 447;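 further: blank spot per well as comparator with Hit at signal to blank ratio of 4 or more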
T1 construct: Bought Fc chimera; Fc part of the bought chimera not given

[2] = molecular target: T2, rHuman IGF-1 sR (IGF-1 sR), CF (R&D Systems Cat#391-GR) (human, UniProt P08069 31-932); test: as above
T2 construct: Bought soluble receptor; also called insulin-like growth factor-1 soluble receptor; IGF-R1

[3] = molecular target: T3, rHuman Erythropoietin R/Fc Chimera, CF (R&D Systems Cat#963-ER) (human, UniProt P19235 25-250); test: as above
T3 construct: Bought Fc chimera; also called EPO R/Fc; Epo R; Fc part of the bought chimera not given
T3 sequence: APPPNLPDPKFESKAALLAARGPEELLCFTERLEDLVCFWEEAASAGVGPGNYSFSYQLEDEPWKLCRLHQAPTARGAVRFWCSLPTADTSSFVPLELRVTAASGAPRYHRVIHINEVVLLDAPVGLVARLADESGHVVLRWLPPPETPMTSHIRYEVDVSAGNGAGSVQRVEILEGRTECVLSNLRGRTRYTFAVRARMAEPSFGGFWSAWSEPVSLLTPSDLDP

[4] = molecular target: T4, rHuman Notch-1/Fc Chimera, CF (R&D Systems Cat#3647-TK) (human, UniProt P46531 19-526); test: as above
T4 construct: Bought Fc chimera; Fc part of the bought chimera not given

[5] = molecular target: T5, Recombinant Human DLL4 (R&D Systems Cat#1506-D4/CF) (human, UniProt Q9NR61 27-524); test: as above
T5 construct: Bought recombinant protein; also called delta-like protein 4; rHuman DLL4

[6] = molecular target: T6, rHuman EGF R/Fc Chimera, CF (R&D Systems Cat#344-ER) (human, UniProt P00533 25-645); test: as above
T6 construct: Bought Fc chimera; also called epidermal growth factor receptor; Fc part of the bought chimera not given

[7] = molecular target: T7, rHuman ErbB2/Fc Chimera, CF (R&D Systems Cat#1129-ER) (human, UniProt P04626 23-652); test: as above
T7 construct: Bought Fc chimera; also called HER2/neu; human epidermal growth factor 2 receptor; Fc part of the bought chimera not given

[8] = molecular target: T8, rHuman Notch-1/Fc Chimera, CF (R&D Systems Cat#3647-TK) (human, UniProt P46531 19-526); test: ECL (MSD multi-spot), antigen on plate, Fab 50 nM
T8 construct: Bought Fc chimera; not shown: Fc of the bought chimera

[9] = molecular target: T9, rHuman Erythropoietin R/Fc Chimera, CF (R&D Systems Cat#963-ER) (human, UniProt P19235 25-250); test: ECL (MSD multi-spot), antigen on plate, Fab 50 nM
T9 construct: Bought Fc chimera; also called EPO R/Fc; Epo R; not shown: Fc of the bought chimera
T9 sequence: T3 sequence

[10] = molecular target: T10, rHuman HGF R/c-MET/Fc Chimera, CF (R&D Systems Cat#358-MT/CF) (human, UniProt P08581 25-932); test: ECL (MSD multi-spot), antigen on plate, Fab 50 nM
T10 construct: Bought Fc chimera; also called HGF R/Fc; not shown: Fc of the bought chimera

[11] = molecular target: T8, rHuman Notch-1/Fc Chimera, CF (R&D …); test: ECL (MSD multi-spot), antigen on plate, Fab 0.4 nM;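 further: blank spot per well as comparator with Hit at signal to blank ratio of 4 or more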
[12] = molecular target: T11, rHuman P-Cadherin/Fc Chimera, CF (R&D Systems Cat#861-PC) (human, UniProt P22223 108-654); test: ECL (MSD multi-spot), antigen on plate, Fab 0.4 nM;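 further: blank spot per well as comparator with Hit at signal to blank ratio of 4 or more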
T11 construct: Bought Fc chimera; also called CDH3; not shown: Fc of the bought chimera

[13] = molecular target: T12, Recombinant Human DLL4 (R&D Systems Cat#1506-D4/CF) (human, UniProt Q9NR61 27-524); test: ECL (MSD multi-spot), antigen on plate, Fab 0.4 nM;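 further: blank spot per well as comparator with Hit at signal to blank ratio of 4 or more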
T12 construct: Bought recombinant protein; also called delta-like protein 4

[14] = molecular target: T13, rHuman CD44/Fc Chimera, CF (R&D Systems Cat#3660-CD) (human, UniProt P16070 21-220); test: ECL (MSD multi-spot), antigen on plate, Fab 0.4 nM
T13 construct: Bought Fc chimera; not shown: Fc of the bought chimera

[15] = molecular target: T9, rHuman Erythropoietin R/Fc Chimera, CF …; test: ECL (MSD multi-spot), antigen on plate, Fab 0.4 nM
[16] = molecular target: T14, rHuman EGF R/Fc Chimera, CF (R&D Systems Cat#344-ER) (human, UniProt P00533 25-645); test: ECL (MSD multi-spot), antigen on plate, Fab 0.4 nM
T14 construct: Bought Fc chimera; also called ErbB-1; not shown: Fc of the bought chimera

[17] = molecular target: T15, rHuman IGF-1 sR (insulin-like growth factor-1 soluble receptor), CF (R&D Systems Cat#391-GR) (human, UniProt P08069 31-932); test: ECL (MSD multi-spot), antigen on plate, Fab 0.4 nM
T15 construct: Bought soluble receptor; also called IGF-R1

[18] = molecular target: T10, rHuman HGF R/c-MET/Fc Chimera, CF (R&D …); test: ECL (MSD multi-spot), antigen on plate, Fab 0.4 nM
[19] = molecular target: T16, rHuman ErbB2/Fc Chimera, CF (R&D Systems Cat#1129-ER) (human, UniProt P04626 23-652); test: ECL (MSD multi-spot), antigen on plate, Fab 0.4 nM
T16 construct: Bought Fc chimera; also called HER2/neu; not shown: Fc of the bought chimera

- ECL signal [1]: 960
- ECL signal [2]: 1400
- ECL signal [3]: 1200
- ECL signal [4]: 929
- ECL signal [5]: 40400
- ECL signal [6]: 1400
- ECL signal [7]: 1590
B1: Fab VH5-51_IGHD5-18*01>3_IGHJ4*01 & V3-4_IGLJ1*01 (Fab, V domains shown)
VH: EVQLVQSGAEVKKPGESLKISCKGSGYSFTSYWIGWVRQMPGKGLEWMGIIYPGDSDTRYSPSFQGQVTISADKSISTAYLQWSSLKASDTAMYYCARRGYSYGYDYFDYWGQGTLVTVSS
VL: QTVVTQEPSFSVSPGGTVTLTCGLSSGSVSTSYYPSWYQQTPGQAPRTLIYSTNTRSSGVPDRFSGSILGNKAALTITGAQADDESDYYCVLYMGSGISYVFGTGTKVTVL
notes: Tested as a Fab made in E. coli; also called IGHV5-51*03

- ECL signal [8]: 389 ECL signal
- ECL signal [9]: 533 ECL signal
- ECL signal [10]: 312 ECL signal
B2: Fab VH1-46_IGHD6-6*01_IGHJ1*01_S102A_S103P_S104Y_H111Y & L6_IGKJ1*01 (Fab, V domains shown)
VH: QVQLVQSGAEVKKPGASVKVSCKASGYTFTSYYMHWVRQAPGQGLEWMGIINPSGGSTSYAQKFQGRVTMTRDTSTSTVYMELSSLRSEDTAVYYCAREEYAPYSAEYFQYWGQGTLVTVSS
VL: not shown
notes: Fab made in E. coli; The heavy chain also carries CH1 with Flag and His tags from Plasmid A, and the light chain carries kappa CL from Plasmid C

- ECL signal [11]: 248 ECL signal
- ECL signal [12]: 191 ECL signal
- ECL signal [13]: 1140 ECL signal
- ECL signal [14]: 257 ECL signal
- ECL signal [15]: 147 ECL signal
- ECL signal [16]: 246 ECL signal
- ECL signal [17]: 172 ECL signal
- ECL signal [18]: 199 ECL signal
- ECL signal [19]: 275 ECL signal
B3: Fab VH1-46_IGHD6-6*01_IGHJ1*01_S102A_S103P_S104F & L6_IGKJ1*01_S28P (Fab, V domains shown)
VH: B2 VH with Y104F, Y111H
VL: EIVLTQSPATLSLSPGERATLSCRASQPVSSYLAWYQQKPGQAPRLLIYDASNRATGIPARFSGSGSGTDFTLTISSLEPEDFAVYYCQQRSNWPPWTFGQGTKVEIKR
notes: Fab
